Test results reported in paper PMC13038415 (Nature Chemical Biology, 2026).
Where “and” joins values, the source holds several entries; their conditions need not be identical. Equal entries are not always repeated. Where two headings read alike, the source gives them in different places.

Experiments:
Experiment in all cases: mass photometry
[1] = target: T1, full-length dynein complex AAA3^WA (dynein-K2424A) (yeast, UniProt P36022 1-4092; P40960 1-533; Q04949 1-312; Q02647 1-92, K2424A)
[2] = target: full-length dynein complex AAA3^WB (E2488Q) (yeast, UniProt P36022 1-4092; P40960 1-533; Q04949 1-312; Q02647 1-92, E2488Q)
[3] = target: T1, full-length dynein complex AAA3^WA …; remark: listed apart in the source
[4] = target: T1, full-length dynein complex AAA3^WA …; remark: listed apart in the source

T1 sequence (P36022 whole entry K2424A, chain 1 of 4): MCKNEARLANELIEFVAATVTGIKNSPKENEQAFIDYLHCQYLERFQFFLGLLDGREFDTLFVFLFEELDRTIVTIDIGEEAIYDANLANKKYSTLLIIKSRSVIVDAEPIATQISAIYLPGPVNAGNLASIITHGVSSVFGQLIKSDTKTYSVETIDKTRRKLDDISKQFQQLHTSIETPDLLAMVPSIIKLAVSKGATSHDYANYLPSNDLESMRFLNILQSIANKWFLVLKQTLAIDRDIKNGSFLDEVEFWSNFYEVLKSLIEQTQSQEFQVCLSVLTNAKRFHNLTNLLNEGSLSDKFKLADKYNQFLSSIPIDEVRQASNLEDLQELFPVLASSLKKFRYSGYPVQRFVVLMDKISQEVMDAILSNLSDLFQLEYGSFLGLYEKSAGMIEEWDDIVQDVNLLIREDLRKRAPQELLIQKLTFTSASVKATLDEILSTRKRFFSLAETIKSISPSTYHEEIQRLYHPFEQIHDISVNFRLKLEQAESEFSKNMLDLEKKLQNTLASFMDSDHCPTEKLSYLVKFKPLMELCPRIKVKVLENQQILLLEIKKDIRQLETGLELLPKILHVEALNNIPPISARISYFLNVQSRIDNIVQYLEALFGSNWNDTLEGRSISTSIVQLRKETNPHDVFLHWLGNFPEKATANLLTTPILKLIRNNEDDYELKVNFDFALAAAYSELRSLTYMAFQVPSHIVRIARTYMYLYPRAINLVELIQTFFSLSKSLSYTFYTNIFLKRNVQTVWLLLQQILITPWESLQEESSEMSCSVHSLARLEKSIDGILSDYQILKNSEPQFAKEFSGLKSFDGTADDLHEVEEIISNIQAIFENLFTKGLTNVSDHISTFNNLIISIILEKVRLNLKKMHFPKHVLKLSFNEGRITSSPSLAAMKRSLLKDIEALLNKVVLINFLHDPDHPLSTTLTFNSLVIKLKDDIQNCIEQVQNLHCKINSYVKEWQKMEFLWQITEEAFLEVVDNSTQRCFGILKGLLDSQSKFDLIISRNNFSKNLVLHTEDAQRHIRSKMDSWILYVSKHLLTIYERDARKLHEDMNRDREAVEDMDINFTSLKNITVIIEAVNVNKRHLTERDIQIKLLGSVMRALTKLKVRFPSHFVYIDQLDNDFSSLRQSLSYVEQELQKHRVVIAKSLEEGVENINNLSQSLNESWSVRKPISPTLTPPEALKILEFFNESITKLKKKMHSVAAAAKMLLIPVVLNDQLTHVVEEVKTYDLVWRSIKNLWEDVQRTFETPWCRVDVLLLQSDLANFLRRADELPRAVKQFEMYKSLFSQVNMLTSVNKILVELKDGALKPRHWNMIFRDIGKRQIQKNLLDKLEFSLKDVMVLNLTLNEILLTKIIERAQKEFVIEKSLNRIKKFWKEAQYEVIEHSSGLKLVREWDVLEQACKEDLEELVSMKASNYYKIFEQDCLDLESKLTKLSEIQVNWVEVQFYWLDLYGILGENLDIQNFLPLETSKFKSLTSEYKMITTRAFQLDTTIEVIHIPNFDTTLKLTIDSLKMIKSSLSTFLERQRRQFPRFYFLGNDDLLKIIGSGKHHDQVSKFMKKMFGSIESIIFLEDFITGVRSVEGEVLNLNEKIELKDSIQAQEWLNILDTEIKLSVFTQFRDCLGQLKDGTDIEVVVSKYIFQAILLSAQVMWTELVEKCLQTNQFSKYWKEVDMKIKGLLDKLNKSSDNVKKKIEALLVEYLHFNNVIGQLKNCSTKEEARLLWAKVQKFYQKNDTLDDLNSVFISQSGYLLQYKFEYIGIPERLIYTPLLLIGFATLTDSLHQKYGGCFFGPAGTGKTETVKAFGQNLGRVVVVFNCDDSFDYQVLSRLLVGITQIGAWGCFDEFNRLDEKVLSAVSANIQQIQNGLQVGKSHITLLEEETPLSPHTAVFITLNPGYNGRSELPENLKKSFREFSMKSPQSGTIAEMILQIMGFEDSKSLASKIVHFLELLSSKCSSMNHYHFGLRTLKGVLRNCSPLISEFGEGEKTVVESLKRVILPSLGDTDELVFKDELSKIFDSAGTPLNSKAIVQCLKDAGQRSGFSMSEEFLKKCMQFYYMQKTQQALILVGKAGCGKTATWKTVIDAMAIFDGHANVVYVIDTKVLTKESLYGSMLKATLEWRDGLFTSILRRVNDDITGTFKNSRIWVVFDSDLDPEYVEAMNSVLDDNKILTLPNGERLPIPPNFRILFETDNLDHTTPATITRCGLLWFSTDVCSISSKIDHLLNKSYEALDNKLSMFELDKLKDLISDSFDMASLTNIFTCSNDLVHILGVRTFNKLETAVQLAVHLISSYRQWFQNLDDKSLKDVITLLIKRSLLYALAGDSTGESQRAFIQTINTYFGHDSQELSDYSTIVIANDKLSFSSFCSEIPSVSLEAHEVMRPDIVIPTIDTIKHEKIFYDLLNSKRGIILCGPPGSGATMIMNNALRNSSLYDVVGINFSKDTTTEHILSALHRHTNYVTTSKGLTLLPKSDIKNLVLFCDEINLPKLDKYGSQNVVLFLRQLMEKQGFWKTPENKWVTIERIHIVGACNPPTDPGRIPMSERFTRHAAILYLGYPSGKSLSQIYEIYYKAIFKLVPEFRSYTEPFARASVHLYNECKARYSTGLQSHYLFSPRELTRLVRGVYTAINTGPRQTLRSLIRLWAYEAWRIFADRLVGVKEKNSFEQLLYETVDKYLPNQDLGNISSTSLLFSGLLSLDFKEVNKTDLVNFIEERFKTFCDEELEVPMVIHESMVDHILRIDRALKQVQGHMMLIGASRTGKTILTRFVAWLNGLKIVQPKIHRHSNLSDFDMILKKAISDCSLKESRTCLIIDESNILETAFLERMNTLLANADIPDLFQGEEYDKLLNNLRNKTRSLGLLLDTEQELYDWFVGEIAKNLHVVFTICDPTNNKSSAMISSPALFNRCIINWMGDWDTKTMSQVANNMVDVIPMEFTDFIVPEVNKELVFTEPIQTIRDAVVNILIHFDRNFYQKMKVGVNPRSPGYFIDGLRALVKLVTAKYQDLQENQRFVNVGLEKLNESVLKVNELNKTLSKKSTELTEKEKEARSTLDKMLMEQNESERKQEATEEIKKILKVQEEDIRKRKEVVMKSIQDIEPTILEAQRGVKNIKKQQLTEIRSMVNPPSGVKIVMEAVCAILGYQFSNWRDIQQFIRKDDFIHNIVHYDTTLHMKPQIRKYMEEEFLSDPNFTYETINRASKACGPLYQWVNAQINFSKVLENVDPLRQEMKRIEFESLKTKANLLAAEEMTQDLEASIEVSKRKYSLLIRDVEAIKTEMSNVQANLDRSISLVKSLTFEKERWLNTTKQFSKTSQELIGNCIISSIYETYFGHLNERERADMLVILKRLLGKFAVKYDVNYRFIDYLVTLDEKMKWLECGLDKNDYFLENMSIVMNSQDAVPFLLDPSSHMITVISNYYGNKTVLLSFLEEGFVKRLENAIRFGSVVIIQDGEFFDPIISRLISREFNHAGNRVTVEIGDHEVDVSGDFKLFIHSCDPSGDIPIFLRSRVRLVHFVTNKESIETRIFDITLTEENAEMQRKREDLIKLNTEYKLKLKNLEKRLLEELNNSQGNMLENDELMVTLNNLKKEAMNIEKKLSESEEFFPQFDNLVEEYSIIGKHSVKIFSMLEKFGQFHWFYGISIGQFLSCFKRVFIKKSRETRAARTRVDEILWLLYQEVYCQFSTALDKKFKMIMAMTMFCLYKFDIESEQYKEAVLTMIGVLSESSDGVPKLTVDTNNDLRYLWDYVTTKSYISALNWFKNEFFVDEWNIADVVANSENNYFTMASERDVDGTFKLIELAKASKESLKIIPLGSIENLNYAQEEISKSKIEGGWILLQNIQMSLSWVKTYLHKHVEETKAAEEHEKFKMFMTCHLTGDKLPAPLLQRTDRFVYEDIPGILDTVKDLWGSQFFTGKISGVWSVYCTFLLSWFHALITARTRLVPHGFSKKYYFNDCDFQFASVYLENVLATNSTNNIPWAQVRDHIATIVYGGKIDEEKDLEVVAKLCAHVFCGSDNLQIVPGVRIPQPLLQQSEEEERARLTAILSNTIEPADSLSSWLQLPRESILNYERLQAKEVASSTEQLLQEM
T1 sequence (P40960 whole entry, chain 2 of 4): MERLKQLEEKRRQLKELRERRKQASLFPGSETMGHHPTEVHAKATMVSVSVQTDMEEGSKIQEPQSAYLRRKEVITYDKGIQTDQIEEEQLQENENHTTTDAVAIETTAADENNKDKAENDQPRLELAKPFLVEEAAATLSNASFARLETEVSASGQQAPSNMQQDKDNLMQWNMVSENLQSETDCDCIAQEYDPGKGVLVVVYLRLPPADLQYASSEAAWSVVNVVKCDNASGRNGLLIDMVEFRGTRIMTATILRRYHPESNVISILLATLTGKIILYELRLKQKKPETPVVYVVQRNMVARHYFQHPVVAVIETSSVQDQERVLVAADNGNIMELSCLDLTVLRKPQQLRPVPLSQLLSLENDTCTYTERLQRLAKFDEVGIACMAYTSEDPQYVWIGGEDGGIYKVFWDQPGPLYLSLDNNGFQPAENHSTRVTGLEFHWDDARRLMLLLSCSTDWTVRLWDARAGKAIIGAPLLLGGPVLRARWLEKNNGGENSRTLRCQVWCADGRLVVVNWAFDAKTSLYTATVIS
T1 sequence (Q04949 whole entry, chain 3 of 4): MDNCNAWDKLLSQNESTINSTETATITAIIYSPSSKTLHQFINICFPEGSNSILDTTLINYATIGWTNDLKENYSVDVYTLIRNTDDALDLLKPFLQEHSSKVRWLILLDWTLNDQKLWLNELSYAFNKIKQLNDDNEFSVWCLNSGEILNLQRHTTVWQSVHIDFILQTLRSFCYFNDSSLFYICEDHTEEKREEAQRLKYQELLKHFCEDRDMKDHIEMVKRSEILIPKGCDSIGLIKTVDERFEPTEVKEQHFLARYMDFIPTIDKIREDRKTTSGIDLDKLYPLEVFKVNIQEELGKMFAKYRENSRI
T1 sequence (Q02647 whole entry, chain 4 of 4): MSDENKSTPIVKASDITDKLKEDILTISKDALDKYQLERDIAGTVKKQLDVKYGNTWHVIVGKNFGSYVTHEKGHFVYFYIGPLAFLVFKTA

Row | Binder | stoichiometry N [1] | stoichiometry N [2] | stoichiometry N [3] | binding result [4]
1 | Pac1 (full-length; yeast homolog of Lis1) (natural protein) MTNWQQQLPLTDTQKNELDKSVLRYLNWNYKQTVRHEHAQDYESVRHAIVTLSGFLLQESVDRQEFISNNDTSNESMVDIDELLLPKKWNSIVRLQKKIIELEQNTETLVSQIKDLNTQVSELAQFKPTTSNGTSAHNVLKWIPRNLPSCLINVESSVTSVKLHPNLPIVFVATDHGKLYAFDLFNYTIPLASLQSHTKAITSMDVLFTNYTNSSKKNYLVIVTASKDLQIHVFKWVSEECKFQQIRSLLGHEHIVSAVKIWQKNNDVHIASCSRDQTVKIWDFHNGWSLKTFQPHSQWVRSIDVLGDYIISGSHDTTLRLTHWPSGNGLSVGTGHEFPIEKVKFIHFIEDSPEIRFRTPSTDRYKNWGMQYCVSASRDRTIKIWEIPLPTLMAHRAPIPNPTDSNFRCVLTLKGHLSWVRDISIRGQYLFSCADDKSVRCWDLNTGQCLHVWEKLHTGFVNCLDLDVDFDSNVTPRQMMVTGGLDCKSNVFMR | 1 Pac1 dimer per dynein complex | 1 Pac1 dimer per dynein complex and 2 Pac1 dimers per dynein complex | 2 Pac1 dimers per dynein complex | –
2 | Pac1 site^linker mutant (T403A, S405A, N406A, R320A, V332A) (natural protein) MTNWQQQLPLTDTQKNELDKSVLRYLNWNYKQTVRHEHAQDYESVRHAIVTLSGFLLQESVDRQEFISNNDTSNESMVDIDELLLPKKWNSIVRLQKKIIELEQNTETLVSQIKDLNTQVSELAQFKPTTSNGTSAHNVLKWIPRNLPSCLINVESSVTSVKLHPNLPIVFVATDHGKLYAFDLFNYTIPLASLQSHTKAITSMDVLFTNYTNSSKKNYLVIVTASKDLQIHVFKWVSEECKFQQIRSLLGHEHIVSAVKIWQKNNDVHIASCSRDQTVKIWDFHNGWSLKTFQPHSQWVRSIDVLGDYIISGSHDTTLALTHWPSGNGLSAGTGHEFPIEKVKFIHFIEDSPEIRFRTPSTDRYKNWGMQYCVSASRDRTIKIWEIPLPTLMAHRAPIPNPADAAFRCVLTLKGHLSWVRDISIRGQYLFSCADDKSVRCWDLNTGQCLHVWEKLHTGFVNCLDLDVDFDSNVTPRQMMVTGGLDCKSNVFMR | – | – | – | binds
